For this assay, the target named is T1, human FcγRIIIa type V (allotype V158) extracellular domain with C-terminal His tag (human, UniProt P08637 17-208).
T1 construct: also called FcγRIIIaV
Briefly: SPR (Biacore), antibody captured, FcγR analyte.

Numbering of substitutions follows the chain as printed. In names and notes the source's numbering stands.

The text below walks through data of patent publication US20240279325A1 (Chugai, published 2024).

T1 sequence (P08637 other isoform, or with tags, fused parts or gaps): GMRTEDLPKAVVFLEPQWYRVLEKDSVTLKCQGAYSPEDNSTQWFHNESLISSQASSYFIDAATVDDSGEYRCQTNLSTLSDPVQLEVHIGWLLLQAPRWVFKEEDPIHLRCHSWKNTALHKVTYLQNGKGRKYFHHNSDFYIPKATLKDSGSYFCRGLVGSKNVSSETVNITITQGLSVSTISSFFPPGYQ

B1: IL6R-2B002/IL6R-L (antibody, human IgG1, kappa, name in EU numbering)
heavy: QVQLQESGPGLVKPSETLSLTCAVSGHSISHDHAWSWVRQPPGEGLEWIGFISYSGITNYNPSLQGRVTISRDNSKNTLYLQMNSLRAEDTAVYYCARSLARTTAMDYWGEGTLVTVSSASTKGPSVFPLAPSSKSTSGGTAALGCLVKDYFPEPVTVSWNSGALTSGVHTFPAVLQSSGLYSLSSVVTVPSSSLGTQTYICNVNHKPSNTKVDKKVEPKSCDKTHTCPPCPAPDLLGGDSVFLFPPKPKDTLMISRTPEVTCVVVDVSHEDPEVKFNWYVDGVEVHNAKTKPREEQYNSTYRVVSVLTVLHQDWLNGKEYKCKVSNKALPAPIEKTISKAKGQPREPQVYTLPPSRDELTKNQVSLTCLVKGFYPSDIAVEWESNGQPENNYKTTPPVLDSDGSFFLYSKLTVDKSRWQQGNVFSCSVMHEALHNHYTQESLSLSP
light: not shown
notes: Alterations introduced into IL6R-B3; also called P238D/E233D; copies: 2 + 2
As usually defined, the Kd is the free concentration of one partner at which half of the binding sites on the other are occupied at equilibrium, for simple one-to-one binding. B1 gave a dissociation constant (Kd) of 53 µM.

B2: IL6R-2B128/IL6R-L (antibody, human IgG1, kappa, name in EU numbering)
heavy: B1 heavy with D235E, Y298D
light: not shown
notes: Alterations introduced into IL6R-B3; also called P238D/Y296D; copies: 2 + 2
Take B2: the equilibrium dissociation constant (Kd) was determined as 72 µM.

B3: IL6R-2B172/IL6R-L (antibody, human IgG1, kappa, name in EU numbering)
heavy: B1 heavy with D235E, V325M
light: not shown
notes: Alterations introduced into IL6R-B3; also called P238D/V323M; copies: 2 + 2
For B3, the dissociation constant (Kd) is 48 µM.

B4: IL6R-BP117/IL6R-L (antibody, human IgG1, kappa, name in EU numbering)
heavy: B1 heavy with D235E, K328D
light: not shown
notes: Alterations introduced into IL6R-B3; also called P238D/K326D; copies: 2 + 2
B4 returned a Kd of 67 µM.

B5: IL6R-BP102/IL6R-L (antibody, human IgG1, kappa, name in EU numbering)
heavy: B1 heavy with D235E, S269Q
light: not shown
notes: Alterations introduced into IL6R-B3; also called P238D/S267Q; copies: 2 + 2
B5 displayed a Kd of 82 µM.

B6: IL6R-BP103/IL6R-L (antibody, human IgG1, kappa, name in EU numbering)
heavy: B1 heavy with D235E, S269V
light: not shown
notes: Alterations introduced into IL6R-B3; also called P238D/S267V; copies: 2 + 2
Molecule B6 gave a Kd of 110 µM.

B7: IL6R-2B171/IL6R-L (antibody, human IgG1, kappa, name in EU numbering)
heavy: B1 heavy with D235E, V325L
light: not shown
notes: Alterations introduced into IL6R-B3; also called P238D/V323L; copies: 2 + 2
For B7, binding was characterised by a dissociation constant (Kd) of 57 µM.

B8: IL6R-BP116/IL6R-L (antibody, human IgG1, kappa, name in EU numbering)
heavy: B1 heavy with D235E, K328T
light: not shown
notes: Alterations introduced into IL6R-B3; also called P238D/K326T; copies: 2 + 2
As for B8, the dissociation constant Kd amounted to 72 µM.

B9: IL6R-BP106/IL6R-L (antibody, human IgG1, kappa, name in EU numbering)
heavy: B1 heavy with D235E, H270D
light: not shown
notes: Alterations introduced into IL6R-B3; also called P238D/H268D; copies: 2 + 2
Molecule B9 registered a Kd of 55 µM.

B10: IL6R-BP100/IL6R-L (antibody, human IgG1, kappa, name in EU numbering)
heavy: B1 heavy with D235E, S269A
light: not shown
notes: Alterations introduced into IL6R-B3; also called P238D/S267A; copies: 2 + 2
Molecule B10 gave a Kd of 59 µM.

B11: IL6R-BP118/IL6R-L (antibody, human IgG1, kappa, name in EU numbering)
heavy: B1 heavy with D235E, K328S
light: not shown
notes: Alterations introduced into IL6R-B3; also called P238D/K326S; copies: 2 + 2
In turn, B11 returned a Kd of 56 µM.

B12: IL6R-2B169/IL6R-L (antibody, human IgG1, kappa, name in EU numbering)
heavy: B1 heavy with D235E, V325I
light: not shown
notes: Alterations introduced into IL6R-B3; also called P238D/V323I; copies: 2 + 2
As for B12, binding was characterised by a dissociation constant (Kd) of 75 µM.

B13: IL6R-BP119/IL6R-L (antibody, human IgG1, kappa, name in EU numbering)
heavy: B1 heavy with D235E, K328M
light: not shown
notes: Alterations introduced into IL6R-B3; also called P238D/K326M; copies: 2 + 2
With B13, binding was characterised by a dissociation constant (Kd) of 56 µM.

B14: IL6R-BP110/IL6R-L (antibody, human IgG1, kappa, name in EU numbering)
heavy: B1 heavy with D235E, H270N
light: not shown
notes: Alterations introduced into IL6R-B3; also called P238D/H268N; copies: 2 + 2
For the molecule B14, the Kd came to 64 µM.

B15: IL6R-BP078/IL6R-L (antibody, human IgG1, kappa, name in EU numbering)
heavy: B1 heavy with D235E, A332M
light: not shown
notes: Alterations introduced into IL6R-B3; also called P238D/A330M; copies: 2 + 2
Regarding B15, the Kd was found to be 78 µM.

B16: IL6R-BP107/IL6R-L (antibody, human IgG1, kappa, name in EU numbering)
heavy: B1 heavy with D235E, H270E
light: not shown
notes: Alterations introduced into IL6R-B3; also called P238D/H268E; copies: 2 + 2
The molecule B16 came in with a Kd of 63 µM.

B17: IL6R-BP120/IL6R-L (antibody, human IgG1, kappa, name in EU numbering)
heavy: B1 heavy with D235E, K328E
light: not shown
notes: Alterations introduced into IL6R-B3; also called P238D/K326E; copies: 2 + 2
The molecule B17 returned a Kd of 79 µM.

B18: IL6R-BP126/IL6R-L (antibody, human IgG1, kappa, name in EU numbering)
heavy: B1 heavy with D235E, K328L
light: not shown
notes: Alterations introduced into IL6R-B3; also called P238D/K326L; copies: 2 + 2
In turn, B18 returned a Kd of 56 µM.

B19: IL6R-BP136/IL6R-L (antibody, human IgG1, kappa, name in EU numbering)
heavy: B1 heavy with D235E, K328A
light: not shown
notes: Alterations introduced into IL6R-B3; also called P238D/K326A; copies: 2 + 2
As to B19, the Kd stood at 69 µM.

B20: IL6R-BP121/IL6R-L (antibody, human IgG1, kappa, name in EU numbering)
heavy: B1 heavy with D235E, K328Q
light: not shown
notes: Alterations introduced into IL6R-B3; also called P238D/K326Q; copies: 2 + 2
Regarding B20, the affinity, expressed as Kd, was 52 µM.
